pKd: −log10 of the molar value.
Columns and labels:
[1] = molecular target: FtsQ (58–276), periplasmic domain of E. coli FtsQ (Escherichia coli strain K-12) (UniProt P06136); experiment: SPR; FtsQ (58–276) immobilised on a CM5 chip by amide coupling (~1,000 RU); Biacore T200, 20°C; 10 mM HEPES pH 7.4, 150 mM NaCl, 0.4% glycerol; analytes injected 120 s, 600 s dissociation, 1:2 dilution series, triplicate
[2] = molecular target: FITC-labeled FtsB 64–87 peptide (E. coli) (UniProt P0A6S5); experiment: fluorescence polarisation; 10 nM FITC-labeled FtsB 64–87 peptide, FtsQ in threefold dilutions from 800 µM to 0.5 nM; 10 mM HEPES pH 7.4, 150 mM NaCl, 0.1% Tween 20; 1 h at room temperature

Chain of FtsQ (58–276), periplasmic domain of E. coli FtsQ (Escherichia coli strain K-12) (P06136 58-276): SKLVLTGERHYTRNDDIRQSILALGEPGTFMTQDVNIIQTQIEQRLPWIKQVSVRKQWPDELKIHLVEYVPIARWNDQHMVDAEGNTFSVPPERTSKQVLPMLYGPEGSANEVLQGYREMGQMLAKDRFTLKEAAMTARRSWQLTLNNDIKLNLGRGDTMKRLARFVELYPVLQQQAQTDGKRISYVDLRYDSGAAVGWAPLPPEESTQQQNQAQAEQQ
Chain of FtsN (58–320) plus FtsB (22–103), bound together (A7ZQJ2 22-103): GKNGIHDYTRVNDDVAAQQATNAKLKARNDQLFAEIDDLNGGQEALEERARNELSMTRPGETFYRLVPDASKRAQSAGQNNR
Chain of FtsN (58–320) plus FtsB (22–103), bound together (P29131 57-319): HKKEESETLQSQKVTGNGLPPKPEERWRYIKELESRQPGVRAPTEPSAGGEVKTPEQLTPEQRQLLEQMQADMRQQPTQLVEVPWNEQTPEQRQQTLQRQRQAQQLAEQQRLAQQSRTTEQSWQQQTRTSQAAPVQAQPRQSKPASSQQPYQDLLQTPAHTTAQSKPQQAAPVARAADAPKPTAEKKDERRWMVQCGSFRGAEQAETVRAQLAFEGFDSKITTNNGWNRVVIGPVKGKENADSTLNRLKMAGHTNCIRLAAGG
Chain of FtsN (57–319), periplasmic domain of E. coli FtsN (P29131 57-319): as above

“FtsB F84A (from UniProt P0A6S5 22-103) (domain or fragment)” gave a fold reduction of binding against wild-type FtsB [1] of 10 fold.

For “FtsB R72A (from UniProt P0A6S5 22-103) (domain or fragment)”, the fold reduction of binding against wild-type FtsB [1] was 10 fold.

Substance “FtsN (57–319), periplasmic domain of E. coli FtsN (from UniProt P29131 57-319) (domain or fragment)” has a pKd [1] of 5.60.

“FtsN (58–320) plus FtsB (22–103), bound together (from UniProt P0A6S5 22-103; P29131 57-319)” showed a Kd of FtsB and FtsN bound together [1] of 120 nM.

With “FtsQ (58–276), periplasmic domain of E. coli FtsQ (from UniProt P06136 58-276) (domain or fragment)” the pKd [2] was 5.02.

From publication PMC6134095
